Source: a protein production outcome set (Wang et al. 2014)

Assay: label from the status in PepcDB records

Row | Sequence | protein production
1 | MTRQRNREGLEFTAANAQAVEAFDETVKRYLQFHGDIGGALKATFAHDAQMPMALILRGYFYLLMGLRPLADKAAQLAAGLQPGRAALTEREQRHLDALACWSRDSLQAATEHWERIARAHPRDILAVKMAHFGYFYLGRSARIRDGIAQAIDSWSEDDALYPYMLSMMAFGQVEAGELARGEASGRRALELTPHDPWAVHAVAHALEPTDRKADALAWIARHERHWSEANNFRHHIHWHRALIHLEQGDAQAALDWYDRTVFAADSVEYLDVCNEASLLMRLELSGVDVGRRWEAVAQKSAARIDDQVMGFADVHYAMALCSSANPEHRQQAQALAERLERYSQGGTDNAQAYRQAVVPIVGALLAFRQGRYRESADALLACADVAHAAGGSHDQRDVYEYLTAEALFRAAPAHPDTIAYLARRSFRAPHNPHNWRLYLQSLEQSGQDRTLAAATARRQAAAHATA | failed
2 | MTRSANPSLFLPLRAAWLALMRFQAKSGFVMSSHVAMSMMMALFPFILFTVALAGSLSQDLVTDDLIQLIFGTWPEQVATPIVAELKAVLAGANSRVMTVGGVLAVYFASNGVDAVREAMSRAYHDAETRPFWKTRLLCIAIVVGGGAIVLAVAAFEVVMPIYTRLVTDALPGAAPDWLSVERLSWIFVVAMPAGAVLACHALLPAGRHPLRRILPGVVLTLVLWAGCGWGFSLYIANFASYSTTYAGLAGAMAALIFLYLNAAILILGAEFNGALMDLSGGPD | not failed
3 | MTRSEAQGRLTGLAPVSVIDIGSNSVRLVVYEGLSRAPAVLFNEKVLCGLGKGLALTGRMHEEGVTRALMALRRFHVLSEQAQAQKLYVLATAAAREAENGPDFIREAEAILGCEIEVLSGEKEALYSAYGVISGFYQPDGIAGDLGGGSLELIDIKDKSCGEGITLPLGGLRLSEQSDGSLEKAATIARKHVKSFAKLLAAGEGRTFYAVGGTWRNIAKLHMEISGYPLHMMQGYELPLEEMLNFLEEVIVSRDSKDPAWQAVSKNRRSLLPFGAIAMREVLRAMKPAKIAFSAQGVREGYLYSLLTEAERESDPLLVAADELAILRARSPEHARELADWSGRTFPVFGIDETEEESRYRQAACLLADISWRAHPDYRGLQALNIIAHSSFVAITHPGRAYIALANYYRFEGLNDNGTTEPLAAMAGERLQELGKLLGGLLRVVYLFSASMPGVVDHLKFRKSDNPDIDLEFVVPHDYCDFAGERLDGRLQQLAKLTGKRLAFVFE | not failed
4 | MTRSRRGALARSSEGGPFPTADPVADRALCGWRVRSVIDLPELPLWTRDDRLPDVTIAFGRVTPVESASPGMNWHVVGEGRFRFTVASVGSYRISRGRVITIDPQAGVVASAVRQYLLGTAFGVLCHQRGLLPLHASCVAINGRAVAIAGASGAGKSSLAAALVRLGYPLLGDDVCVIDASEINAPHVLPAIPRLKLWRDVLDTFGLIVDPAARILEGIDKYQAQALADRPPPPPPQVPLPLGVVYYLDQAESPDDEGFHAIRGAERAAALAGAVYRRKMGLAMGLLPQIFTATMTVGALVPGHRLLRHGDLSGLDALARSVAARQEGRGLEHHHHHH | failed
5 | MTRTTGTRTTGILADGAIRALFAGDKLKSEADLDVDQVQPASLDLRLGSKAYRVRASFMPGPGTRVIDKLNRFSLHEVDLSQGAVLETGCVYIVPLMESLALPADMSASANPKSSTGRLDIFTRVMTDNAQEFDKIPAGYTGPLYLEISPRTFPIVVRRGSRLSQIRFRIGHALLNESEVLKLHETETLVASENPNVTGGGIALSIDLKGFGENGLIGYRGKHHTAVVDVDKKAQHDVLDFWEPLFARGRAELILDPDEFYILVSREAVHVPPLYAAEMTPFDPLVGEFRVHYAGFFDPGFGHAQAGGTGSRAVLEVRSHEVPFILEHGQIVGRLVYEHMLEKPEGLYGTGLGSNYQAQGLKLSKHFRAE | not failed
6 | MTRVKSKLDEELSSPWFYTVCTMGGMLSAGTTHLAITPLDVLKVNMQVNPVKYNSIPSGFSTLLREHGHSYLWRGWSGKLLGYGVQGGCRFGLYEYFKTLYSDVLPNHNRTSIYFLSSASAQIFADMALCPFEAIKVRVQTQPMFAKGLLDGFPRVYRSEGLAGFHRGLFPLWCRNLPFSMVMFSTFEQSVEFIYQKIIQKRKQDCSKAQQLGVTCLAGYTAGAVGTIISNPADVVLSSLYNNKAKNVLQAVRNIGFVGLFTRSLPVRITIVGPVITLQWFFYDAIKVLSGFPTSGGVKKPVDAAKLSV | failed
7 | MTRVLYCGDTSLETAAGYLAGLMTSWQWEFDYIPSHVGLDVGELLAKQDLVILSDYPAERMTAQAIDQLVTMVKAGCGLVMLGGWESYHGLGGNWDQTLLAEVLPVDIKSADDRINFDQPTLAIPAAINSVSHPILQNLPWEDRPPTIGGLNRIAAKAKAQTLLMARVWRPTFSLEHGKTTWEHADHHPLLVVGEAGTGRVAAFASDVAPHWVGGLVDWGDERVTSQAPGAGAIEVGNLYSQFFRQMLEWVAKSTR | not failed
8 | MTSAAQLTALLHLASPALPVGAFSYSQGLEAAVEARHVHDEASAARWIAEGLAVLAACEAPLWLLQYADWQAGRLDAVAERDGWFLATRETRELRLETAQMGWSLARLIAQMGWGAPAMRDALAARAAITFPTAFAAAAVALGIEARDGLTAYSFAWVENQVAAAVKAIPLGQAAGQRILFGLHAAVGQAAEDAARRAACHPPELSTFSPGLGVLSARHETQYSRLFRSLEHHHHHH | failed
9 | MTSAQAVSEGTGEAAAQAISLRTWVAVLGSVVGCFMAGMNVHVTNASLPDVRGSLGATFEEGSWITTAYLVAEIIIIPMTGWLVSVFSMRRVLMVGTAGFVLFSIACSLAPNIHSLIFARVLQGAFGGVLIPLSFQLIVTELPAARHPMGMALFAVANNVAQAAGPSLGGWLTDAYSWRWIFYLQVPPGLLLLAAIGWSVRPQPMVLAKLRQGDWGGIASMAVGLSALQIMLEEGGRYDWFASSFISHCAILATVGLLAFVAIELRREQPLINLRLLGRYNFGIASLMQFTFGAVVFGVVFLVPNYFAQIHGYNARQIGLMMIPYGLIQFVMSFATPRLMRWTSARTIIIAGFAITGIGCLMNIHLNPDASVNVIVPSLVVRGIGQSLVVVALGVMAIQGLEKDQVGSASGLFSMVRNVGGAIGIALSSQIVVEREKLHAQRIGESVSLFAQATQERLVELVRLLAQAPVEYATALHSAALAPLRQQALGMVDKVLHRDALLLAYSDAFLLAGLAMLLCVVAGVLLRRA | failed
10 | MTSDIKAILEQVVISPDVPIAEAIAQLDRAGTGSLVVCSADKKLYGLLTDGDVRRALLKAVDMGAPCGDIANRKPVITFVPLLPIEALRLMNHHDINHLPVLDAEGRVVDFLLRRDLVAEDELAARARRRLDSVVIPCSASIAEAIAQLDRAGTGALVLCSEGDRLHGLLTDGDIRRAVLRGISLDAPCQDVASRRPVTVEPSFSAAQALHLMNQHDINHLPVVDDTGRVVDFLLRRDLIADDQLNLSAVVMAGGYGKRLLPLTEQVPKPMLPVGDRPLLERTIDQLRRSGIREVNLTTHYLPDSIVEHFGDGDSFGVKLNYLKEDHPLGTAGGLKLMKKASDPFLVMNGDILTGVPFQEMFAYHRKNGAEITVGVRKYEVQVPFGVVECDDVRITGLKEKPSLTFFINAGIYLLEPSVCDLIPEGERFDMTDLIQKLLDEGRSVVSFPIMEYWLDVGRHEDYQKAQEDVRSGKIQLEHHHHHH | failed
11 | MTSDQPIRWGIIGPGTIARTFADGVAHSRTGKLVAIATRNPSKPGLAENFPGARIVNGYEALLSDPEVDAVYISVPHTGHAEWAIKAARAGKHILVEKPIALSAYDAEAVYYEAKKAGVFAGEAFMYRVHPQTEKLVELIKSGVIGTLRIIRSSFGFNMGSYRPEHRLFANDTAGGGILDVGGYPVSMARLIAGAAEGKAFLDPEKVSGVAHLGESGVDEWASAVLKFPNEIIAEVSCSIMAQQDNVLRIIGSEGRIEVADFWFASGHKGGVGKIEIFKGGKQETIEVKEERWLYSFEADAAGDAIRAGRTEFSAPGMGWTDSIANLRVLDQWRASVGLEYGVEKAAKRTNNIAGGAVTRGNSIRQRQIPGISKPASVVTLGFEFFPNFAAASLTLDAFYEAGGNAFDTAYVYGAGKTEAIFGDWHTSRNVPREEIVLIGKGAHSPLCYPDMIAKQLDQSLARLKTDYVDIYFMHRDNTDVPVGEFVDAMDAEVKRGRIRGIFGGSNWTRARFDEAIAYAEKNGKTAPAALSNNFSLAEMLDPIWAGCVAASDDDWKKWLNEKQIPNFAWSSQGRGFFTDRAGRDKRDDEEIVRVWYSERNFGRRDRAIELANKLGRNPIHIALAYVIAQPFPVIPLIGPRTVAELEDSLSALDIRLTPDEVKWLEG | failed
12 | MTSITPVTLANCEDEPIHVPGAIQPHGALVTLRADGMVLAASENIQALLGFVASPGSYLTQEQVGPEVLRMLEEGLTGNGPWSNSVETRIGEHLFDVIGHSYKEVFYLEFEIRTADTLSITSFTLNAQRIIAQVQLHNDTASLLSNVTDELRRMTGYDRVMAYRFRHDDSGEVVAESRREDLESYLGQRYPASDIPAQARRLYIQNPIRLIADVAYTPMRVFPALNPETNESFDLSYSVLRSVSPIHCEYLTNMGVRASMSISIVVGGKLWGLFSCHHMSPKLIPYPVRMSFQIFSQVCSAIVERLEQGRIAELLRVSTERRLALARRARDADDLFGALAHPDDGIAALIPCDGALVMLGGRTLSIRGDFERQAGNVLQRLQRDPERDIYHTDNWPQPSEDSPDGGDCCGVLAIRFHRQESGWIFWFRHEEVHRIRWGGKPEKLLTIGPSGPRLTPRGSFEAWEEVVRGHSTPWSETDLAIAEKLRLDLMELCLNHAAEVDRMRQRLIAVLGHDLRNPLQSISMAAALLSSSDTRTTELRQHISASSSRMERLVSQILDMSRLQSGIGLTVNPVDTDVSQLVRQIVCETDVAYPGLVIEIAIDPQVRAVVDPDRYAQVAANLLSNARHHGLPGRPVLVTLTRQGDEVCLSVLNETSGLSEAQLANLFEPFKRESADNQRNRNGLGIGLYISQAIAQAHQGRIDVDCRDDVITFCLRLPVRQAETGSSS | failed
13 | MTSLPTSLLGDLDPTSDRAVFRQIADQLREAIDRGRFKEGEKLPSEAELVEHYGVSRMTVRNSFSILQGEGLVHAEHGKGVFVRPRPPVRRLASDRFARRHREQGKSAFIVEADAAGSHPQVDSLEVKEEKASQDISTRLGSVRRVLARRRRYLLDGRPVEFATSYLPLDIARDTPIAEPNPGPGGIYARLEELGHRLDHFEEEIRARMPSPSEVKTLRLASGVPVIHLIRTAYDTEGRAVEVCDTVMAADAYVLSYQLPAT | failed
14 | MTSLSSKRVAETLDKLHAEAEAADRALMAEMMAQAERSGETLKDLAAKFVDEERLNYRTTYQEHADHFLAISSAYGRFLYAIARARRATRIVEFGTSMGISTIYLAAALRDNGGGRLIGSEIEPTKVARARAHLEATGLADLVDIREGDALDTLKDVGCEVDILSIDGAFSLYLPVLKLIEPRLTPGAVILGENAFAQDYLDYVRAPANGYFSRSLDIDEGRGNEFTVRVG | failed
15 | MTSPASCSPPNEKRTGSPFPPESRSLPSTMEMTMNTIFRPAPHPLPDAPFYTPLGNECVLFESAWVRQLPLLLKGPTGCGKTRFVSHMAAKLGLPLSTISCHDDLAAADLTGRYLLKGGETVWMDGPLTRSVRQGGICYLDEIVEARKDVAVVLHPLTDDRRILPLERTGEVLEAPSGFMLVVSYNPGYQNLLKSLKPSTRQRFVAIEFDFLPKEQEIAVVSHESGLDARDVEPLVDLAHRLRGLKGHDLEEGVSTRLLVYCASLIDTGLPARQAVRATMIEPLTDEPDVKAALHEVADAIIRLEHHHHHH | failed
